Publication PMC10232371, “Enhanced rare-earth separation with a metal-sensitive lanmodulin dimer” (Nature, 2023)

Assays:
[1] = target: Lanmodulin from Hansschlegelia quercus (Hans-LanM), wild type (Hansschlegelia quercus); assay: SEC; analytical size-exclusion chromatography of Hans-LanM in the presence of three equivalents of La(III)
[2] = target: Lanmodulin from Hansschlegelia quercus (Hans-LanM), wild type (Hansschlegelia quercus); assay: ITC; dilutive additions of 300 uM apo protein into matched buffer (30 mM MOPS, 100 mM KCl, pH 7.0), 30 °C; Dimer Dissociation model; dimer to monomers
[3] = target: Lanmodulin from Hansschlegelia quercus (Hans-LanM), wild type (Hansschlegelia quercus); assay: SEC-MALS; Hans-LanM pre-incubated with 3 equiv. La(III), Nd(III) or Gd(III); 1.2-1.5 mg/mL loaded; buffer B (30 mM MOPS, 100 mM KCl, 5% glycerol, pH 7.0)
[4] = target: Lanmodulin from Hansschlegelia quercus (Hans-LanM), wild type (Hansschlegelia quercus); assay: ITC; dilutive additions of 300 uM protein with 2 equivalents of Dy(III) into matched buffer (30 mM MOPS, 100 mM KCl, pH 7.0), 30 °C; Dimer Dissociation model; dimer to monomers
[5] = target: Lanmodulin from Hansschlegelia quercus (Hans-LanM), wild type (Hansschlegelia quercus); assay: ITC; dilutive additions of 150 uM or 540 uM protein with 2 equivalents of La(III) into matched buffer (30 mM MOPS, 100 mM KCl, pH 7.0), 30 °C; no change of heats seen, only an upper limit; dimer to monomers
[6] = target: the molecule itself; assay: SEC; analytical Superdex 75 column (24 mL); protein metalated with 3.0 equiv. La(III)
[7] = target: the molecule itself; assay: SEC; analytical Superdex 75 column (24 mL); apo protein (590 uM, 100 uL) metalated with 3.0 equiv. Nd(III)
[8] = target: the molecule itself; assay: SAXS; La(III)-bound protein from SEC-MALS fractions, 1.5 mg/mL; 30 mM MOPS, 100 mM KCl, 5% glycerol, pH 7.0, 22 C; Porod volume, OLIGOMER and CRYSOL analyses
[9] = target: the molecule itself; assay: SAXS; Nd(III)-bound protein from SEC-MALS fractions, 1.4 mg/mL; 30 mM MOPS, 100 mM KCl, 5% glycerol, pH 7.0, 22 C; Porod volume, OLIGOMER and CRYSOL analyses

| Molecule | stoichiometry N [1] | Kd [2] | stoichiometry N [3] | Kd [4] | Kd [5] | stoichiometry N [6] | stoichiometry N [7] | stoichiometry N [8] | stoichiometry N [9] |
| --- | --- | --- | --- | --- | --- | --- | --- | --- | --- |
| Lanmodulin from Hansschlegelia quercus (Hans-LanM), wild type (natural protein) | 2 | 117 µM | 2 | 60 µM | < 0.4 µM |  |  |  |  |
| Hansschlegelia quercus lanmodulin (Hans-LanM), residues A24-K133 (natural protein, lanmodulin (LanM) of Hansschlegelia quercus without its native 23-residue signal peptide; expressed with an N-terminal Met that is cleaved, so the first residue is A24; Metal-free (apo) or loaded with rare-earth(III) ions as named in each assay; expressed from pET-29b(+); also called wild-type Hans-LanM; source: E. coli, purified (SEC, dialysed against Chelex 100)) ASGADALKALNKDNDDSLEIAEVIHAGATTFTAINPDGDTTLESGETKGRLTEKDWARANKDGDQTLEMDEWLKILRTRFKRADANKDGKLTAAELDSKAGQGVLVMIMK |  |  |  |  |  | 2 | 2 | 2 | 2 |
